Data on 36 sequences can be found in the supplement of paper PMC10567573.

± gives the standard deviation.

The nature of the data set: protein stability index of a GFP-peptide fusion (GPS, HEK-293T) (PSI 1-6); higher = more stable. Particulars: c terminus: a fixed tail appended.
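Also: 24-mer peptide tiles fused after GFP, lentivirally expressed, FACS-sorted into six equal bins by GFP/DsRed ratio, decoded by Illumina sequencing, PSI is the read-weighted mean bin number.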

Sequence PIMAKEGQLYAMELQGFWMDIGQP [GMPPB] returned a protein stability index (treatment: DMSO) of 2.23 ± 0.25 and a protein stability index (treatment: MLN4924 1 uM, 8 h) of 2.14 ± 0.31.

VCGQNWGIVEAMVVCRQLGLGFAS [LOXL2]: the protein stability index was found to be 3.33 ± 0.11 (treatment: DMSO) and 3.18 ± 2 (treatment: MLN4924 1 uM, 8 h).

With VDMECQTDAFLDRPPTPLFIPAKT [RSPH3], the protein stability index is, setting by setting: (treatment: DMSO) 4.01 ± 0.1; (treatment: MLN4924 1 uM, 8 h) 4.19 ± 0.061.

As for EQCPVIDSQAPAGSLDLVPGGLTL [SPDEF], the protein stability index by setting is: (treatment: DMSO) 4.07 ± 0.23; (treatment: MLN4924 1 uM, 8 h) 4.24 ± 0.13.

In the case of MSGSCAVCVDRVLYLFGGHHSRGN [KLHDC2], the protein stability index is 2.35 ± 0.55 (treatment: DMSO) and 1.75 ± 0.36 (treatment: MLN4924 1 uM, 8 h).

As to LKLKNKLLQADREHLPVKPDTMEK [DENND6A], the protein stability index is 4.35 ± 0.34 (treatment: DMSO) and 4.33 ± 0.22 (treatment: MLN4924 1 uM, 8 h).

Turning to TLDVYNPFETREPPPAYEPPAPAP [SCAMP3], the protein stability index reads like this: (treatment: DMSO) 4.51 ± 0.18; (treatment: MLN4924 1 uM, 8 h) 4.61 ± 0.2.

As to LKTSKMALSPSATAKRINRTSLSS [CDC14A], the protein stability index is, setting by setting: (treatment: DMSO) 3.71 ± 0.26; (treatment: MLN4924 1 uM, 8 h) 3.54 ± 0.25.

Consider ELQRTKQEVLSLRRENSTLDVECH [SASS6], for which the protein stability index reads like this: (treatment: DMSO) 4.02 ± 0.33; (treatment: MLN4924 1 uM, 8 h) 3.93 ± 0.2.

As to QVLRNNPDALSDVGEVPYWVLEPV [ELOA2], the protein stability index runs as follows: (treatment: DMSO) 2.92 ± 0.52; (treatment: MLN4924 1 uM, 8 h) 3.34 ± 0.44.

Regarding YLFWEFATDNYDIGFGVYFEWTDS [ACBD3], the protein stability index is, setting by setting: (treatment: DMSO) 3.14 ± 0.85; (treatment: MLN4924 1 uM, 8 h) 1.93 ± 0.72.

With VHVSESSDDDEEEEENIGCEEKAK [ACBD3], the protein stability index is, setting by setting: (treatment: DMSO) 5.55 ± 0.32; (treatment: MLN4924 1 uM, 8 h) 5.62 ± 0.12.

For the sequence HKACEVAPLQSVFQGQKTELNNCI [TRIM63], the protein stability index worked out at 3.78 ± 0.12 (treatment: DMSO) and 3.67 ± 0.41 (treatment: MLN4924 1 uM, 8 h).

Turning to EKRPLFLAPDFDRWLDESDAEMEL [HACD3], the protein stability index is, setting by setting: (treatment: DMSO) 4.45 ± 0.11; (treatment: MLN4924 1 uM, 8 h) 4.64 ± 0.068.

Take WKITIYDQENFQGKRMEFTSSCPN [CRYBA1]: the protein stability index (treatment: DMSO) amounted to 2.26 ± 0.38 and the protein stability index (treatment: MLN4924 1 uM, 8 h) came to 2.15 ± 0.23.

As for SLLKKPDGVKESTESSNTTIEDED [CAMK2D], the protein stability index reads like this: (treatment: DMSO) 5.52 ± 0.11; (treatment: MLN4924 1 uM, 8 h) 5.43 ± 0.19.

With KQLICPICLEMFTKPVVILPCQHN [TRIM63], the protein stability index came to 2.97 ± 0.31 (treatment: DMSO) and 3.01 ± 0.43 (treatment: MLN4924 1 uM, 8 h).

For the sequence AKTFHLVNPNGQKQQLVDAFLKLA [FAN1], the protein stability index (treatment: DMSO) was determined as 2 ± 0.36 and the protein stability index (treatment: MLN4924 1 uM, 8 h) is 2.05 ± 0.17.

Sequence EQELYNNFVYNSPRGYFHTFAGDT [WASL] showed a protein stability index (treatment: DMSO) of 2.73 ± 0.21 and a protein stability index (treatment: MLN4924 1 uM, 8 h) of 2.78 ± 0.32.

RKKQHICDECGKHFSQGSALILHQ [ZNF24]: the protein stability index (treatment: DMSO) came to 3.53 ± 0.21 and the protein stability index (treatment: MLN4924 1 uM, 8 h) is 3.62 ± 0.41.

LLKAGADVNKTDHSQRTALHLAAQ [INVS]: the protein stability index by setting is: (treatment: DMSO) 4.11 ± 0.33; (treatment: MLN4924 1 uM, 8 h) 4.09 ± 0.17.

In the case of REVEARYALQMEQLNGILLHLESE [KRT18], the protein stability index is, setting by setting: (treatment: DMSO) 2.98 ± 0.63; (treatment: MLN4924 1 uM, 8 h) 3.16 ± 0.53.

TVGTPDYIAPEVFMQTGYNKLCDW [STK38L]: the protein stability index runs as follows: (treatment: DMSO) 2.82 ± 0.16; (treatment: MLN4924 1 uM, 8 h) 2.97 ± 0.37.

Consider IEVKTKGGSKYLIYRRYRQFHALQ [NCF4], for which the protein stability index runs as follows: (treatment: DMSO) 2.22 ± 0.35; (treatment: MLN4924 1 uM, 8 h) 2.2 ± 0.33.

On to LEKGADVNRKSVKGNTALHDCAES [FEM1C], for which the protein stability index worked out at 5.18 ± 0.29 (treatment: DMSO) and 5.38 ± 0.28 (treatment: MLN4924 1 uM, 8 h).

Take SLRRRGASAAARLGCNRQSWCLKR [TRIM14]: the protein stability index runs as follows: (treatment: DMSO) 3.28 ± 0.28; (treatment: MLN4924 1 uM, 8 h) 3.16 ± 0.58.

Regarding FGIVEIDGMLYILGGEDGEKELIS [GAN], the protein stability index came out at 2.35 ± 0.25 (treatment: DMSO) and 2.31 ± 0.29 (treatment: MLN4924 1 uM, 8 h).

For VDCTEIFGGNPRFLSLHRAHLGEE [ZNF263], the protein stability index is, setting by setting: (treatment: DMSO) 3.11 ± 0.4; (treatment: MLN4924 1 uM, 8 h) 3.24 ± 0.25.

On to VKFISNPPSMVAAGSVVAAVQGLN [CCND1], for which the protein stability index by setting is: (treatment: DMSO) 2.43 ± 0.62; (treatment: MLN4924 1 uM, 8 h) 2.42 ± 0.24.

For the sequence PPQPGCPAFIIVKLSPLRDRLVVT [ZSWIM9], the protein stability index by setting is: (treatment: DMSO) 2.93 ± 1; (treatment: MLN4924 1 uM, 8 h) 2.99 ± 0.94.

The sequence LPRKDYESLDYDRCINDPYLEVLE [CLCN6] showed a protein stability index (treatment: DMSO) of 3.4 ± 0.24 and a protein stability index (treatment: MLN4924 1 uM, 8 h) of 3.58 ± 0.18.

Take RHSKGLQILGQTLKASMRELGLLI [KCNA1]: the protein stability index runs as follows: (treatment: DMSO) 2.96 ± 0.5; (treatment: MLN4924 1 uM, 8 h) 2.89 ± 0.15.

For SDKYPIQDTELPKAEECDTITLNC [EDARADD], the protein stability index turned out to be 5.25 ± 0.41 (treatment: DMSO) and 5.26 ± 0.21 (treatment: MLN4924 1 uM, 8 h).

Regarding EVSQQDPSHGEVGEHKDRIERQWG [ZSCAN9], the protein stability index reads like this: (treatment: DMSO) 4.69 ± 0.18; (treatment: MLN4924 1 uM, 8 h) 4.95 ± 0.15.

The sequence PEKEYQRQVWLLFEYPESSGPARV [KCNA1] registered a protein stability index (treatment: DMSO) of 2.59 ± 0.29 and a protein stability index (treatment: MLN4924 1 uM, 8 h) of 2.06 ± 0.33.

On to SLLDELMEVQHFRTIYHMFIAGLC [SOAT2], for which the protein stability index turned out to be 2.59 ± 0.55 (treatment: DMSO) and 2.49 ± 0.42 (treatment: MLN4924 1 uM, 8 h).
